{
  "source": "patent US20110092427A1",
  "about": "“POLYPEPTIDE AND PHARMACEUTICAL COMPOSITION CONTAINING THE POLYPEPTIDE” (National University Corporation Hokkaido Universit y, priority 2008, published 2011)",
  "molecules": {"B1": {"name": "PEDF protein: commercially available PEDF protein comprising the amino acid sequence of SEQ ID NO: 6 (Sigma) (protein, listed as Homo sapiens)", "chain": "MQALVLLLCIGALLGHSSCQNPASPPEEGSPDPDSTGALVEEEDPFFKVPVNKLAAAVSNFGYDLYRVRSSTSPTTNVLLSPLSVATALSALSLGAEQRTESIIHRALYYDLISSPDIHGTYKELLDTVTAPQKNLKSASRIVFEKKLRIKSSFVAPLEKSYGTRPRVLTGNPRLDLQEINNWVQAQMKGKLARSTKEIPDEISILLLGVAHFKGQWVTKFDSRKTSLEDFYLDEERTVRVPMMSDPKAVLRYGLDSDLSCKIAQLPLTGSMSIIFFLPLKVTQNLTLIEESLTSEFIHDIDRELKTVQAVLTVPKLKLSYEGEVTKSLQEMKLQSLFDSPDFSKITGKPIKLTQVEHRAGFEWNEDGAGTTPSPGLQPAHLTFPLDYHLNQPFIFVLRDTDTGALLFIGKILDPRGP"}, "B2": {"name": "polypeptide F3: polypeptide comprising the amino acid sequence of positions 301 to 418 of PEDF (SEQ ID NO: 4) (protein, listed as Homo sapiens)", "chain": "IDRELKTVQAVLTVPKLKLSYEGEVTKSLQEMKLQSLFDSPDFSKITGKPIKLTQVEHRAGFEWNEDGAGTTPSPGLQPAHLTFPLDYHLNQPFIFVLRDTDTGALLFIGKILDPRGP"}},
  "key": {"[1]": {"system": "psoriasis patient-derived skin grafted onto the back of a mouse", "assay": "External application to psoriasis patient skin grafted onto SCID mice", "format": "in vivo", "conditions": "for side effects at the applied sites: 70 μL of 1 mM solution in PBS applied to grafted site daily for 14 days; for thickness of the grafted skin (HE-stained sections): psoriasis skin graft, 70 μL of 1 mM solution applied daily for 14 days, FIG. 6, p<0.05", "from_the_text": "The hair in the area of approximately 1 cm^2 in the back of 7 to 8 week-old SCID mice (Clea Japan, Inc.) was shaved, and the full-thickness skin was removed while keeping the vessel plexus intact on the fascia overlying back muscles. The skin of affected area of a psoriasis patient that was sampled under the approval of the ethical code was washed with PBS containing 1% penicillin, 1% streptomycine, and 1% amphotericin B, and each piece of the skin thus treated was separately transplanted onto the skin-removed area of the above-described mice.\nSeven days after transplantation, 70 μL of each of solutions prepared by dissolving polypeptides P5-1, P5-2, and P5-3 into phosphate buffered saline (PBS) (each 1 mM) was applied to the grafted sites of three mice daily for 14 days. […] Further, as a control, the same volumes of PBS solution containing a polypeptide having a random sequence and PBS without polypeptide were applied. After 14 days, a part of the grafted skin was collected and embedded in an optimal cutting temperature (OCT) reagent (Sakura finetechnical Co., Ltd.) and then frozen in liquid nitrogen, which was then prepared as 5 μm-thick sections.\nAlso, in accordance with the method of Abe et al. (Am. J. Pathol., 2004, Vol. 164, No. 4, pages 1225-1232), the capillary endothelial cells in the grafted superficial dermis were enumerated by immunoassay employing a rat anti-mouse CD31 antibody using CD31, which was a marker protein of the capillary endothelial cells, as an index."}, "[2]": {"system": "human osteosarcoma cells, MG63", "assay": "Inhibition of MG63 tumor cell proliferation, 5-bromo-2' deoxyuridine incorporation", "format": "cell-based", "conditions": "100 nM; FIG. 3 and FIG. 4, p<0.01", "method": "(§1) The inhibitory effect of each polypeptide on tumor cell proliferation with respect to human osteosarcoma cells, MG63 (Health Science Research Resources) was measured in accordance with the method described by Takenaka et al. (Life Science, 2005, Vol. 77, pages 3231-3241).\n(§2) Into Dulbecco's modified Eagle's medium (DMEM) supplemented with 10% of fetal bovine serum (FBS) and 100 units/mL penicillin and streptomycin (hereinbelow, simply referred to as a medium), MG63 was suspended. Then, 100 nM commercially available PEDF protein (Sigma) and each of 100 nM polypeptides F1 to F3 prepared in Example 1 “2) Production of polypeptides F1 to F3” were each added per medium, followed by incubation at 37° C. for 24 hours. Subsequently, [^3H] thymidine (Amersham Biosciences Corp.) was added and incubation was carried out for four hours, after which the amount of [^3H] thymidine incorporation by MG63 was measured and the inhibitory effect on tumor cell proliferation was examined.\nAlso, by carrying out similar operations to the above, the inhibitory effect on MG63 tumor cell proliferation was examined by measuring the amount of 5-bromo-2′ deoxyuridine (Roche) incorporation with addition of each of 100 nM polypeptides P1 to P6. […]"}, "[3]": {"system": "psoriasis patient-derived skin grafted onto the back of mice", "assay": "Subcutaneous injection at psoriasis patient skin grafted onto SCID mice", "format": "in vivo", "conditions": "skin of affected area of a psoriasis patient, 30 μg subcutaneous injection, three times/week for three weeks", "from_the_text": "(§3) Further, in a similar manner to the above, the hair in the area of approximately 1 cm^2 in the back of 7 to 8 week old SCID mice (Clea Japan, Inc.) was shaved, and the full-thickness skin was removed while keeping the vessel plexus intact on the fascia overlying back muscles. The skin of affected area of a psoriasis patient and the skin of a normal individual that were sampled under the approval of the ethical code were each washed with PBS containing 1% penicillin and 1% amphotericin B, and each of the skin thus treated was separately transplanted onto the skin-removed area of the above-described mice.\n(§4) Seven days after transplantation, commercially available PEDF protein (30 μg) was given at the grafted site by subcutaneous injection. The injection was administered for three weeks at three times/week. As a control, a mouse given subcutaneous injection of only PBS was used. The day after the last subcutaneous injection, a part of the grafted skin was collected and stained with HE in a similar manner to the above, and the thickness of the grafted skin was measured. The results obtained from the skin of affected area of a psoriasis patient are shown in FIG. 8 (photograph) and FIG. 9, and the results obtained from the skin of a normal individual are shown in FIG. 10 (photograph) and FIG. 11.\n(§5) Also, by carrying out similar operations to the above, the capillary endothelial cells were enumerated using CD31 as an index. The results obtained from the skin of affected area of a psoriasis patient are shown in FIG. 12 and the results obtained from the skin of a normal individual are shown in FIG. 13.\n(§6) Further, the frequency of Ki-67 expressing positive cells, where Ki-67 is a proliferation marker of the basal cell layer, was measured in accordance with the method of Gilhar et al. (Am. J. Pathol., 2006, Vol. 168, No. 1, pages 170 to 175). The results obtained from the skin of affected area of a psoriasis patient are shown in FIG. 14 and the results obtained from the skin of a normal individual are shown in FIG. 15."}, "[4]": {"system": "normal individual-derived skin grafted onto the back of mice", "assay": "Subcutaneous injection at normal individual skin grafted onto SCID mice", "format": "in vivo", "conditions": "skin of a normal individual, 30 μg subcutaneous injection, three times/week for three weeks", "from_the_text": "as §3, §4, §5, §6"}, "[5]": {"system": "human osteosarcoma cells, MG63", "assay": "Inhibition of MG63 tumor cell proliferation, [3H] thymidine incorporation", "format": "cell-based", "conditions": "100 nM, incubation 24 hours, then [3H] thymidine four hours; FIG. 2, p<0.01", "method": "as §1, §2"}},
  "note": "Peptide text beside a SMILES is read from it.",
  "data": [
    {"molecule": "polypeptide P5-2: polypeptide of SEQ ID NO: 2, identical to positions 388 to 394 of PEDF (YHLNQP; listed as Homo sapiens)", "values": [
      {"measurement": "side effects at the applied sites", "setting": "[1]", "value": "no side effects and the like were apparent"},
      {"measurement": "thickness of the grafted skin (HE-stained sections)", "setting": "[1]", "value": "significantly reduced"}
    ]},
    {"molecule": "polypeptide P5-3: polypeptide of SEQ ID NO: 3, identical to positions 395 to 400 of PEDF (FIFVLRD; listed as Homo sapiens)", "values": [
      {"measurement": "side effects at the applied sites", "setting": "[1]", "value": "no side effects and the like were apparent"},
      {"measurement": "thickness of the grafted skin (HE-stained sections)", "setting": "[1]", "value": "significantly reduced"}
    ]},
    {"molecule": "CC(C)C[C@H](NC(=O)[C@@H](N)Cc1c[nH]cn1)C(=O)N[C@H](C(=O)N[C@@H](Cc1ccccc1)C(=O)N1CCC[C@H]1C(=O)N[C@@H](CC(C)C)C(=O)N[C@@H](CC(=O)O)C(=O)O)[C@@H](C)O", "note": "[polypeptide P5-1] (H-HLTFPLD-OH)", "values": [
      {"measurement": "side effects at the applied sites", "setting": "[1]", "value": "no side effects and the like were apparent"}
    ]},
    {"molecule": "polypeptide P5: polypeptide of SEQ ID NO: 5, identical to the amino acid sequence of positions 381 to 400 of PEDF (HLTFPLDYHLNQPFIFVLRD; listed as Homo sapiens)", "values": [
      {"measurement": "inhibitory effect on MG63 tumor cell proliferation (amount of 5-bromo-2' deoxyuridine incorporation)", "setting": "[2]", "value": "an inhibitory effect on tumor cell proliferation was confirmed"}
    ]},
    {"molecule": "B1", "values": [
      {"measurement": "thickness of the grafted skin", "setting": "[3]; FIG. 9, p<0.05", "value": "significantly reduced"},
      {"measurement": "number of capillary endothelial cells (CD31-positive)", "setting": "[3]; FIG. 12, p<0.05", "value": "significantly reduced"},
      {"measurement": "frequency of Ki-67 expressing positive cells in the basal cell layer", "setting": "[3]; FIG. 14, p<0.05", "value": "significantly reduced"},
      {"measurement": "thickness of the grafted skin", "setting": "[4]; FIG. 11, p<0.05", "value": "significantly reduced"},
      {"measurement": "number of capillary endothelial cells (CD31-positive)", "setting": "[4]; FIG. 13, p<0.05", "value": "significantly reduced"},
      {"measurement": "frequency of Ki-67 expressing positive cells in the basal cell layer", "setting": "[4]; FIG. 15, p<0.05", "value": "significantly reduced"}
    ]},
    {"molecule": "B2", "values": [
      {"measurement": "inhibitory effect on tumor cell proliferation (amount of [3H] thymidine incorporation by MG63)", "setting": "[5]", "value": "a strong inhibitory effect on tumor cell proliferation was confirmed"}
    ]}
  ]
}
